Source: US20240269285A1 (University of Texas, published 2024)

T1: human CD70 (human, UniProt P32970 1-193)
T1 construct: whole, on cells; also called CD70 antigen; CD27 ligand
T1 sequence (looked up): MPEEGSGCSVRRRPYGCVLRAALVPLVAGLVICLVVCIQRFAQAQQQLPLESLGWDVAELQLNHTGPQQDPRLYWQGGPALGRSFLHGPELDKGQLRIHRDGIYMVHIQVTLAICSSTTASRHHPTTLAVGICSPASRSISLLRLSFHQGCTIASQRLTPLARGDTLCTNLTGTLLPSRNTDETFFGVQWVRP


Biological target: T1, human CD70
Experiment: flow cytometry on CBNK cells, Raji WT cells and Raji CD70 KO cells
Protocol: Flow cytometry assay was conducted to detect the binding of various ml, m5, m6, m7, m14, m15, m16, m19, and m22 clones CD70 antibody clones to CD70 antigen expressed in various cells.

Binder	binding result
m7 monoclonal anti-human CD70 antibody clone (antibody, V domains shown, Purified monoclonal antibody; Detected with a goat anti-mouse IgG-HRP secondary antibody; also called m7-CD70) VH: QVQLKQSGPGLVQPSQSLSITCTVSGFSLTSYGVHWVRQSPGKGLEWLGVIWSGGSTDYNAAFISRLSISKDNSKSQVFFKMNSLQANDTAIYYCATYYRYDGWFAYWGQGTLVTVSA VL: DIVLTQSPASLAVSLGQRATISCRASKSVSTSGYSYMHWYQQKPGQPPKLLIYLASNLESGVPARFSGSGSGTDFTLNIHPVEEEDAATYSCQHSRELPWTFGGGTKLEIK	binds
m14 monoclonal anti-human CD70 antibody clone (antibody, V domains shown, Purified monoclonal antibody; Detected with a goat anti-mouse IgG-HRP secondary antibody; also called m14-CD70) VH: EVQLQQSGAELVKPGASVKLSCTASGFNIKDSYMHWVKQRPEQGLEWIGRIDPANANPKYDPKFQGKATITTDTSSNTAYLQLSSLTSEDTAVYYCARDYGGYFDVWGAGTTVTVSS VL: DIQMTQSSSYLSVSLGGRVTITCKASDHINNWLAWYQQKPGNAPRLLISGATSLETGVPSRFSGSGSGKDYTLSITSLQTEDVATYYCQQYWSTPWTFGGGTKLEIK	binds
